Substitutions are numbered along the chain they refer to.
T1: recombinant human OX40L (extracellular domain, R&D Systems) (human, UniProt P23510 51-183)
T1 construct: also called hOX40L; rec. hOX40L
T1 sequence: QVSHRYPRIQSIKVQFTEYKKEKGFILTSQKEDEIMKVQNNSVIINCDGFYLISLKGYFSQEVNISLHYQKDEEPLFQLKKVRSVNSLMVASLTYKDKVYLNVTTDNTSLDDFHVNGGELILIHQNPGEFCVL

T2: biotinylated hOX40L (R&D Systems, biotinylated in house) (human, UniProt P23510 51-183, biotinylated with Sulfo-NHS-LC-Biotin, sites not stated)
T2 construct: same bought protein as m10, biotinylated; also called biotinylated OX40L
T2 sequence: T1 sequence

T3: full length human OX40L expressed on CHO cells (human, UniProt P23510 1-183)
T3 sequence: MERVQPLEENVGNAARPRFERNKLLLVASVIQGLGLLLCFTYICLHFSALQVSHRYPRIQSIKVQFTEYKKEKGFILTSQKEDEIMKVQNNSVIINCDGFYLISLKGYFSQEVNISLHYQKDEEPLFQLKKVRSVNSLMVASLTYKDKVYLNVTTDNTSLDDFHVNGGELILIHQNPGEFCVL

T4: hCD40L (human, UniProt P29965 113-261)
T4 sequence (looked up): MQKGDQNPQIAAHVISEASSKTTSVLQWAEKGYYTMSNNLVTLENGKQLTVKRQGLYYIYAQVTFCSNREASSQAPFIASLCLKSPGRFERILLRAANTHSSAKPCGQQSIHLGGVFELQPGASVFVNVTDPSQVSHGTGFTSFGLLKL

T5: human Receptor Activator for Nuclear Factor kappa B Ligand (human, UniProt O14788 143-317, limits assumed)
T5 construct: also called hRANKL; RANKL
T5 sequence (looked up): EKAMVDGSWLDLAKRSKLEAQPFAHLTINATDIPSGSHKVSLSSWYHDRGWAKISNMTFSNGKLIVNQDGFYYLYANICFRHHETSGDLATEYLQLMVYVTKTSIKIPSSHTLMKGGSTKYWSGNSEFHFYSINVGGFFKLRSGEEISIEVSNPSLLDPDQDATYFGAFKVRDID

T6: hCD30L (human, UniProt P32971 63-234)
T6 sequence (looked up): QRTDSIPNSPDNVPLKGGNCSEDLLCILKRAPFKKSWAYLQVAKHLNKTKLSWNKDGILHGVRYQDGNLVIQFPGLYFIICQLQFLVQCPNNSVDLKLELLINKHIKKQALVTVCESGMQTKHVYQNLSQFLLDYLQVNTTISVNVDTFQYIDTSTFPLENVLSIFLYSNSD

T7: cynomolgus OX40L expressed on CHO cells (cynomolgus monkey, UniProt P23510 1-183 (human entry))
T7 construct: also called cynoOX40L; CHO-cynoOX40L
T7 chain: T3 sequence with R55Q, K73E

B1: OX40L19D08 (VHH)
VHH: EVQLVESGGGLVQAGASLRLSCAASGRRFISNYAMGWFRQAPGQERAFVAAISRSGSITYYTDSVKGRFSISRDYAKSTVYLQMDNLKPEDTAVYYCAADGGAVRDLTTNLPDYWGRGTQVTVSS
notes: monovalent Nanobody from E. coli; not shown: C-terminal c-myc and His6 tag
B2: OX40L19A07 (VHH)
VHH: EVQLVESGGGLVQAGGSLRLSCAASGFTLDDYAIAWFRQAPGKEREGVSRIKISNGRTTYAGSVKGRFTISSDNAKNTVYLQMNSLNAEDTAVYYCAADRSSLLFGSNWDRKARYDYWGQGTQVTVSS
notes: as for B1
B3: OX40L18E09 (VHH)
VHH: EVQLVESGGGLVQAGGSLRLSCAASRNILSLNTMGWYRHAPGKPRELVARISSNSKTDYADSVKGRFTISRDNAKNTVLLQMNSLKPEDTGVYYCNLNVWRTSSDYWGQGTQVTVSS
notes: as for B1

Tests used:
[1] = molecular target: T1, recombinant human OX40L (extracellular …); assay: SPR, second injection after competitor OX40L15B07
Description: (§1) In addition, it was investigated to what extend the 7 anti-OX40L Nanobodies have a different or identical or overlapping epitope. Standard conditions were as described above. […] 1300 RU. A dual injection was performed at 10 μl/min for 2 min, starting with 500 nM of the first Nanobody, followed by 500 nM of the second Nanobody. After 10 min dissociation, regeneration of the surface was performed by injection of 50 mM NaOH for 5-20 sec at 100 μl/min.

[2] = molecular target: T2, biotinylated hOX40L (R&D Systems, …); assay: AlphaScreen, 31 pM biotinylated hOX40L + 80 pM OX40/Fc
Description: (§2) Next, streptavidin donor beads were added and incubated for an additional 1 hour. Fluorescence was measured by reading plates on the EnVision Multilabel Plate Reader using an excitation wavelength of 680 nm and an emission wavelength of 520 nm.

[3] = molecular target: T1, recombinant human OX40L (extracellular …); assay: SPR, second injection after competitor OX40L19A07
Description: as §1

[4] = molecular target: T1, recombinant human OX40L (extracellular …); assay: SPR, second injection after competitor OX40L19D08
Description: as §1

[5] = molecular target: T2, biotinylated hOX40L (R&D Systems, …); assay: AlphaScreen, 120 pM biotinylated hOX40L + 0.2 nM hOX40/Fc
Description: as §2

[6] = molecular target: T3, full length human OX40L expressed on …; assay: cell-based or functional assay
hCD40L = molecular target: T4, hCD40L; assay: competition ELISA on neutravidin captured biotinylated hOX40L
Description: (§3) The binding of OX40L blocking Nanobodies to other TNF family members was tested in a competition ELISA.
(§4) Detection was done using sTMB (SDT Reagents, Baesweiler, Germany), the reaction was stopped with 1M HCl and absorbance was determined at 450 nm.

[7] = molecular target: T5, human Receptor Activator for Nuclear …; assay: as above
Description: as §3, §4

hTNF-alpha = hTNF-alpha (human, UniProt P01375 77-233); assay: as above
Chain of hTNF-alpha (P01375 77-233 limits assumed): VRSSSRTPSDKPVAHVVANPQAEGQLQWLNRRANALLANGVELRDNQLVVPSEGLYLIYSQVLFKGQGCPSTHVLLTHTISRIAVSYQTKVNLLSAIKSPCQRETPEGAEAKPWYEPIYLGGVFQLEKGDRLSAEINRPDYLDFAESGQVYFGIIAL
Description: as §3, §4

[8] = molecular target: T8, human tumor necrosis factor-related apoptosis inducing ligand (human, UniProt P50591 114-281); assay: as above
T8 construct: also called hTRAIL; TRAIL
T8 sequence (P50591 114-281 limits assumed): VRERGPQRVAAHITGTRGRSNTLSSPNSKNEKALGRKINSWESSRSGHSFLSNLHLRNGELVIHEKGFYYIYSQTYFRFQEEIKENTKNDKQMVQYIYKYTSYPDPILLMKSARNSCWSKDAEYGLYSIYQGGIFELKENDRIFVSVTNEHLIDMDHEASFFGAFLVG
Description: as §3, §4

hCD30L = molecular target: T6, hCD30L; assay: as above
Description: as §3, §4

[9] = molecular target: T1, recombinant human OX40L (extracellular …); assay: SPR, second injection after competitor OX40L01E10
Description: as §1

[10] = molecular target: T7, cynomolgus OX40L expressed on CHO cells; assay: FACS binding to CHO cells, anti-c-myc detection
Description: (§5) Transfection of CHO K1 with the respective expression plasmid DNA and selection of clones with high expression levels was performed as described in Example 1. Binding of the Nanobodies to the cell surface expressed OX40L was assessed by FACS analysis of cells as described below.
(§6) After washing bound Nanobodies were detected in FACSArray™ using mouse anti-c-myc and PE conjugated goat anti-mouse IgG.

[11] = molecular target: T3, full length human OX40L expressed on …; assay: FACS binding to CHO cells, anti-c-myc detection
Description: as §5, §6

[12] = molecular target: T1, recombinant human OX40L (extracellular …); assay: SPR, after second injection of buffer HBS-EP+
Description: as §1

[13] = molecular target: T1, recombinant human OX40L (extracellular …); assay: SPR, second injection after competitor OX40L18E09
Description: as §1

[14] = molecular target: T1, recombinant human OX40L (extracellular …); assay: SPR, second injection after competitor OX40L01B11
Description: as §1

[15] = molecular target: T1, recombinant human OX40L (extracellular …); assay: SPR, second injection after competitor OX40L01E07
Description: as §1

[16] = molecular target: T3, full length human OX40L expressed on …; assay: competition FACS, 3.1 nM hOX40/Fc on hOX40L expressing cells
[17] = molecular target: T3, full length human OX40L expressed on …; assay: competition FACS with hOX40/Fc on CHO-hOX40L
Description: The competition FACS assay was performed as described in example 2.

| Binder | Binding Level sample 2 (RU) [1] [RU] | Binding Level sample 2 - sample 1 (RU) [1] [RU] | IC50 [2] [nM] | Binding Level sample 2 (RU) [3] [RU] | Binding Level sample 2 - sample 1 (RU) [3] [RU] | Binding Level sample 2 (RU) [4] [RU] | Binding Level sample 2 - sample 1 (RU) [4] [RU] | IC50 [5] [nM] | IC50, IL4 production, T-cell activation assay, donor 1 [6] [nM] | IC50, IL4 production, T-cell activation assay, donor 2 [6] [nM] | binding result (hCD40L) | binding result [7] | binding result (hTNF-alpha) | binding result [8] | binding result (hCD30L) | Binding Level sample 2 (RU) [9] [RU] | Binding Level sample 2 - sample 1 (RU) [9] [RU] | EC50 [10] [nM] | EC50 [11] [nM] | Binding Level sample 2 (RU) [12] [RU] | other results |
| --- | --- | --- | --- | --- | --- | --- | --- | --- | --- | --- | --- | --- | --- | --- | --- | --- | --- | --- | --- | --- | --- |
| B1 | 239 | 42 | 0.133 | 224 | 47 | 236 | 7 | 0.285 | 90 | 132 | no binding (tested: starting from 100 fold molar excess) | no binding (tested: starting from 100 fold molar excess) | no binding (tested: starting from 100 fold molar excess) | no binding (tested: starting from 100 fold molar excess) | no binding (tested: starting from 100 fold molar excess) | 275 | 49 | 3.4 | 2.85 | 184 | IC50, IL4 production, T-cell activation assay, donor 3 [6]: 36 nM; IC50, IL4 production, T-cell activation assay, donor 4 [6]: 96 nM; Binding Level sample 2 - sample 1 (RU) [12]: -38 RU; Binding Level sample 2 (RU) [13]: 224 RU; Binding Level sample 2 - sample 1 (RU) [13]: 33 RU; Binding Level sample 2 (RU) [14]: 468 RU; Binding Level sample 2 - sample 1 (RU) [14]: 159 RU; Binding Level sample 2 (RU) [15]: 187 RU; Binding Level sample 2 - sample 1 (RU) [15]: 3 RU; IC50 [16]: 3.31 nM; IC50 [17]: 4 nM |
| B2 | 207 | 9 | 0.355 | 183 | 6 | 205 | -24 | 0.54 | 596 | 618 | no binding (tested: starting from 100 fold molar excess) | no binding (tested: starting from 100 fold molar excess) | no binding (tested: starting from 100 fold molar excess) | no binding (tested: starting from 100 fold molar excess) | no binding (tested: starting from 100 fold molar excess) | 239 | 12 | 5.34 | 5.67 | 160 | Binding Level sample 2 - sample 1 (RU) [12]: -15 RU; Binding Level sample 2 (RU) [13]: 194 RU; Binding Level sample 2 - sample 1 (RU) [13]: 2 RU; Binding Level sample 2 (RU) [14]: 371 RU; Binding Level sample 2 - sample 1 (RU) [14]: 70 RU; Binding Level sample 2 (RU) [15]: 179 RU; Binding Level sample 2 - sample 1 (RU) [15]: -3 RU; IC50 [16]: 16.6 nM; IC50 [17]: 13 nM |
| B3 | 207 | 11 | 0.041 | 206 | 30 | 225 | -3 | 0.112 | 36 | 45 | no binding (tested: starting from 100 fold molar excess) | no binding (tested: starting from 100 fold molar excess) | no binding (tested: starting from 100 fold molar excess) | no binding (tested: starting from 100 fold molar excess) | no binding (tested: starting from 100 fold molar excess) | 245 | 21 | 3.8 | 2.26 | 168 | IC50, IL4 production, T-cell activation assay, donor 3 [6]: 36 nM; IC50, IL4 production, T-cell activation assay, donor 4 [6]: 49 nM; Binding Level sample 2 - sample 1 (RU) [12]: -16 RU; Binding Level sample 2 (RU) [13]: 195 RU; Binding Level sample 2 - sample 1 (RU) [13]: 5 RU; Binding Level sample 2 (RU) [14]: 312 RU; Binding Level sample 2 - sample 1 (RU) [14]: -7 RU; Binding Level sample 2 (RU) [15]: 200 RU; Binding Level sample 2 - sample 1 (RU) [15]: 15 RU; IC50 [16]: 1.73 nM; IC50 [17]: 2 nM |

Source: patent publication US20150218281A1 (Ablynx, published 2015)
